These results are taken from publication PMC3135484 (Molecular Biology of the Cell, 2011).

Sequences and labels used below:
B1: GST-tagged Vam7 PX domain (1-129) (domain or fragment)
chain: MAANSVGKMSEKLRIKVDDVKINPKYVLYGVSTPNKRLYKRYSEFWKLKTRLERDVGSTIPYDFPEKPGVLDRRWQRRYDDPEMIDERRIGLERFLNELYNDRFDSRWRDTKIAQDFLQLSKPNVSQEK
B2: SNARE complex assembled on GST-Vam7 SD with Vam3, Vti1 and Ykt6 (complex)
chain 1: PSTEVTRRAALLRSLLKECDDIGTANIAQDRGRLLGVATSDNSSTTEVQGRTNNDLQQGQMQMVRDQEQELVALHRIIQAQRGLALEMNEELQTQNELLTALEDDVDNTGRRLQIANKKARHFNNSA
chain 2: MSFFDIEAQSSKGNSQQEPQFSTNQKTKELSNLIETFAEQSRVLEKECTKIGSKRDSKELRYKIETELIPNCTSVRDKIESNILIHQNGKLSADFKNLKTKYQSLQQSYNQRKSLFPLKTPISPGTSKERKDIHPRTEAVRQDPESSYISIKVNEQSPLLHNEGQHQLQLQEEQEQQQQGLSQEELDFQTIIHQERSQQIGRIHTAVQEVNAIFHQLGSLVKEQGEQVTTIDENISHLHDNMQNANKQLTRADQHQRDRNKCGK
chain 3: MSSLLISYESDFKTTLEQAKASLAEAPSQPLSQRNTTLKHVEQQQDELFDLLDQMDVEVNNSIGDASERATYKAKLREWKKTIQSDIKRPLQSLVDSGDRDRLFGDLNASNIDDDQRQQLLSNHAILQKSGDRLKDASRIANETEGIGSQIMMDLRSQRETLENARQTLFQADSYVDKSIKTLKTMTRR
chain 4: MRIYYIGVFRSGGEKALELSEVKDLSQFGFFERSSVGQFMTFFAETVASRTGAGQRQSIEEGNYIGHVYARSEGICGVLITDKEYPVRPAYTLLNKILDEYLVAHPKEEWADVTETNDALKMKQLDTYISKYQDPSQADAIMKVQQELDETKIVLHKTIENVLQRGEKLDNLVDKSESLTASSKMFYKQAKKSNSCCIIM
B3: minimal SNARE complex assembled on GST-Vam7 SD with Vam3ΔN, Vti1 and Ykt6 (complex)
chain 1: B2 chain 1
chain 2: ESSYISIKVNEQSPLLHNEGQHQLQLQEEQEQQQQGLSQEELDFQTIIHQERSQQIGRIHTAVQEVNAIFHQLGSLVKEQGEQVTTIDENISHLHDNMQNANKQLTRADQHQRDRNKCGK
chain 3: B2 chain 3
chain 4: B2 chain 4
B4: Q-SNARE complex assembled on GST-Vam7 SD with Vam3 and Vti1 (complex)
chain 1: B2 chain 1
chain 2: B2 chain 2
chain 3: B2 chain 3
B5: His-tagged Ykt6 (1-200) (natural protein)
chain: B2 chain 4
B6: His-tagged Vti1 (1-189, ΔTMD) (domain or fragment)
chain: B2 chain 3
B7: GST-tagged Vam3 (Vam3 1-260, ΔTMD) (domain or fragment)
chain: MSFFDIEAQSSKGNSQQEPQFSTNQKTKELSNLIETFAEQSRVLEKECTKIGSKRDSKELRYKIETELIPNCTSVRDKIESNILIHQNGKLSADFKNLKTKYQSLQQSYNQRKSLFPLKTPISPGTSKERKDIHPRTEAVRQDPESSYISIKVNEQSPLLHNEGQHQLQLQEEQEQQQQGLSQEELDFQTIIHQERSQQIGRIHTAVQEVNAIFHQLGSLVKEQGEQVTTIDENISHLHDNMQNANKQLTRADQHQRDRN
B8: GST-tagged Vam7 (1-316) (natural protein)
chain: MAANSVGKMSEKLRIKVDDVKINPKYVLYGVSTPNKRLYKRYSEFWKLKTRLERDVGSTIPYDFPEKPGVLDRRWQRRYDDPEMIDERRIGLERFLNELYNDRFDSRWRDTKIAQDFLQLSKPNVSQEKSQQHLETADEVGWDEMIRDIKLDLDKESDGTPSVRGALRARTKLHKLRERLEQDVQKKSLPSTEVTRRAALLRSLLKECDDIGTANIAQDRGRLLGVATSDNSSTTEVQGRTNNDLQQGQMQMVRDQEQELVALHRIIQAQRGLALEMNEELQTQNELLTALEDDVDNTGRRLQIANKKARHFNNSA

What all share (experiment): pull-down
Assay [1] deals with HOPS (homotypic fusion and protein sorting) complex (yeast (S. cerevisiae), UniProt P38959;Q07468;P20795;P12868;Q03308;P27801).
In assay [2] the target is B7.
The target of the next assay is T1, His-tagged Vam7 (1-316) (S. cerevisiae, UniProt P32912 1-316).
T1 sequence: B8 chain

Assay [3] concerns the target T2, Vps16 (individual HOPS subunit, TAP-purified) (yeast (S. cerevisiae), UniProt Q03308 1-798).
T2 sequence: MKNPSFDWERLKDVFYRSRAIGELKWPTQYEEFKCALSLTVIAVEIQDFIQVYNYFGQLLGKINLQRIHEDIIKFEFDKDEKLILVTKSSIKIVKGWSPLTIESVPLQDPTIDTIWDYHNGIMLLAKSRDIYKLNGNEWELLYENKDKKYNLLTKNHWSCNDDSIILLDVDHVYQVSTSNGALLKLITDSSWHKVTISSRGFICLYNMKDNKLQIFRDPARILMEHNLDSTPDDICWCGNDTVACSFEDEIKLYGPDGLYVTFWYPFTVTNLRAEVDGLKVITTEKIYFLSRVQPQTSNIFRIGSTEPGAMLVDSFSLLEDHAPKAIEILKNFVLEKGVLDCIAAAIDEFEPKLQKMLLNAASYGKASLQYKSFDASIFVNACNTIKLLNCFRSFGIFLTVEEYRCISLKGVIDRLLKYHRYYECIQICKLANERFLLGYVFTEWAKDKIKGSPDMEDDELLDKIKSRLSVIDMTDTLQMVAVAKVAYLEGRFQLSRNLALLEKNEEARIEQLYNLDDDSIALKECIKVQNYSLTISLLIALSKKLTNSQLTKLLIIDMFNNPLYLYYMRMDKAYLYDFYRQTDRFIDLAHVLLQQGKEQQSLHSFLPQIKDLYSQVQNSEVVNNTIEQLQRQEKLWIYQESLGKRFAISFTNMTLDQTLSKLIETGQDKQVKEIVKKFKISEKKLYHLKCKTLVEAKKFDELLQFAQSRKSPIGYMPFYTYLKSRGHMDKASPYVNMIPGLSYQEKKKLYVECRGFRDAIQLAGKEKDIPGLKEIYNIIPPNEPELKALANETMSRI

Consider B1, for which, in assay [1], the binding result is recorded as “binds”.

In the case of B2, in assay [1], the binding result is recorded as “binds”.

Regarding B3, the binding result in assay [1] is “binds”.

With B4, the binding result in assay [1] is listed as “binds”.

With B5, in assay [2], the binding result is “binds”.

Regarding B6, in assay [2], the binding result was “binds”.

On to B7, for which, in the assay with His-tagged Vam7 (1-316), the binding result is “binds”.

With B8, the binding result in assay [3] and in assay [1] was “binds” in each case.
